According to FireProtDB (doi:10.1021/bi00197a024):
Values joined by “and” are separate entries in the source; they are usually repeats but may differ in a detail not shown here. Identical values can stand only once.

Conditions: Saccharomyces cerevisiae (strain ATCC 204508 / S288c), Thermal, DSC, reversible: yes, whole UniProt chain shown

B1: Cytochrome c mitochondrial import factor CYC2 wild type, P38909 (protein)
chain: MLWKNYVLSSSRITRRLHKSPRKSSFSKNFFITGCLLTVGAVSSYLTYRYTSERENKHELSPSYFVKYKISHKRDIDSSHFLLEVTPLFKQKVNIWSLMTAENLWSVEIKQPEVMVVRNYTPLPLKFNPASKEIEILKDGDNADGKLSFYIKKYENGEVARWLHHLPKGHIIEIRGPFIDYEFPHLPNELKRSRDCLYMDNRNERGNNVRENSQFIYQPYDIMMFTAGTGIVTALQLLLTESPFRGTIKLFHTDKNIKQLGPLYPILLRLQASNRVQLKIFETDRQTKQDVLKSIQKSITKPYPYKGLLPFSNVNNKNIMPVLALVCGPESYISSISGRKYDLNQGPVGGLLSKEGWNSDNVYKLS
Tm (pH 3.5, Sodium acetate 0.1 M): 39 °C | unfolding enthalpy (calorimetric) (pH 3.5, Sodium acetate 0.1 M): 53.7 kcal/mol | unfolding enthalpy (van 't Hoff) (pH 3.5, Sodium acetate 0.1 M): 67.7 kcal/mol | Tm (pH 4, Sodium acetate 0.1 M): 43.7 °C | unfolding enthalpy (calorimetric) (pH 4, Sodium acetate 0.1 M): 62.7 kcal/mol | unfolding enthalpy (van 't Hoff) (pH 4, Sodium acetate 0.1 M): 75.9 kcal/mol | Tm (pH 5, Sodium phosphate 0.1 M): 54.9 °C and 53.1 °C | unfolding enthalpy (calorimetric) (pH 5, Sodium phosphate 0.1 M): 73.4 kcal/mol and 71.2 kcal/mol | unfolding enthalpy (van 't Hoff) (pH 5, Sodium phosphate 0.1 M): 93.2 kcal/mol and 92.9 kcal/mol | Tm (pH 6, Sodium phosphate 0.1 M): 54.5 °C | unfolding enthalpy (calorimetric) (pH 6, Sodium phosphate 0.1 M): 67.4 kcal/mol | unfolding enthalpy (van 't Hoff) (pH 6, Sodium phosphate 0.1 M): 91.7 kcal/mol
